# B1: Tyrosine-protein kinase CSK (Homo sapiens), P41240 (parent)
# chain: MSAIQAAWPSGTECIAKYNFHGTAEQDLPFCKGDVLTIVAVTKDPNWYKAKNKVGREGIIPANYVQKREGVKAGTKLSLMPWFHGKITREQAERLLYPPETGLFLVRESTNYPGDYTLCVSCDGKVEHYRIMYHASKLSIDEEVYFENLMQLVEHYTSDADGLCTRLIKPKVMEGTVAAQDEFYRSGWALNMKELKLLQTIGKGEFGDVMLGDYRGNKVAVKCIKNDATAQAFLAEASVMTQLRHSNLVQLLGVIVEEKGGLYIVTEYMAKGSLVDYLRSRGRSVLGGDCLLKFSLDVCEAMEYLEGNNFVHRDLAARNVLVSEDNVAKVSDFGLTKEASSTQDTGKLPVKWTAPEALREKKFSTKSDVWSFGILLWEIYSFGRVPYPRIPLKDVVPRVEKGYKMDAPDGCPPAVYEVMKNCWHLDAAMRPSFLQLREQLEHIKTHELHL
# Variants of: B1
# Conditions: with igf1r_human IGF1R
row,effect of a mutation on the interaction,Variant
1,disrupting interaction strength,S109C

# — IntAct's records for PubMed 10026153
